Article PMC3821618

Molecular target: TagRFP-T (Entacmaea quadricolor)
Assay: fluorescence correlation spectroscopy (FCS), molecular brightness analysis; live transfected mouse GHFT1 cells, cytosol; molecular brightness Mb = CPS/(N*Po) from one-component autocorrelation fits, compared with published intrinsic brightness and between FP alone and FP-BZip; 561 nm excitation, 36 °C, 5% CO2

A fraction of the molecules that are dimers of 30% was found for TagRFP-T in this work.
